Assay results: US20240109965A1 (Ablynx, published 2024)

T1: cynomolgus TCRαβ-zipper protein (cynomolgus)
T1 construct: also called cyTCR(AEA41865)-zipper; CynoTCRαβ-zipper
T1 TCR alpha: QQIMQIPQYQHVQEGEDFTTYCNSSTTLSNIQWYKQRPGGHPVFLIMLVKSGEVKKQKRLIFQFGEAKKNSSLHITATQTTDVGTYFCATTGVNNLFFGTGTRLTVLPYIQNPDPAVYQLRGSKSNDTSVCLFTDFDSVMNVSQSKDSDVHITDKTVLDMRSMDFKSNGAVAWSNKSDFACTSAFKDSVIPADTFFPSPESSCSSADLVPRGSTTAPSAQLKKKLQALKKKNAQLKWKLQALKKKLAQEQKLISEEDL
T1 TCR beta: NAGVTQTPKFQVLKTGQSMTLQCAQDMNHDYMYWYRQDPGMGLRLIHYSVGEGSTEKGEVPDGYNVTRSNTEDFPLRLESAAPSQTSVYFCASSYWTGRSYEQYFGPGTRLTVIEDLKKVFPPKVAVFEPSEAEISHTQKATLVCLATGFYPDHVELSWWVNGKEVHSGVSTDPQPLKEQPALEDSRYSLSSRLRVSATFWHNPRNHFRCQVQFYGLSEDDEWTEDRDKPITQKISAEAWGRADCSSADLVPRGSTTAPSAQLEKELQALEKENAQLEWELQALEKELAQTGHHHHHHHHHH

B1: T017001025 (bispecific antibody)
chain: DVQLVESGGGVVQPGGSLRLSCVASGYVHKINFYGWYRQAPGKEREKVAHISIGDQTDYAESAKGRFTISRDESKNTVYLQMNSLRPEDTAAYYCRALSRISPYDYWGQGTLVTVSSGGGGSGGGSEVQLVESGGGVVQPGGSLRLSCAASGTTLDYYVIGWFRQAPGKEREGVSCISSSDGYTYYADSVKGRFTISRDNAKNTVYLQMNSLRPEDTALYYCATDPYYSSCHPFFADYEYDYWGQGTLVTVSSGGGGSGGGSEVQLVESGGGVVQPGGSLRLSCAASGFTFRSFGMSWVRQAPGKGPEWVSSISGSGSDTLYADSVKGRFTISRDNSKNTLYLQMNSLRPEDTALYYCTIGGSLSRSSQGTLVTVSS
B2: T017001026 (bispecific antibody)
chain: DVQLVESGGGVVQPGGSLRLSCVASGYVHKINFYGWYRQAPGKEREKVAHISIGDQTDYAESAKGRFTISRDESKNTVYLQMNSLRPEDTAAYYCRALSRIQPYDYWGQGTLVTVSSGGGGSGGGSEVQLVESGGGVVQPGGSLRLSCAASGTTLDYYVIGWFRQAPGKEREGVSCISSSDGYTYYADSVKGRFTISRDNAKNTVYLQMNSLRPEDTALYYCATDPYYSSCHPFFADYEYDYWGQGTLVTVSSGGGGSGGGSEVQLVESGGGVVQPGGSLRLSCAASGFTFRSFGMSWVRQAPGKGPEWVSSISGSGSDTLYADSVKGRFTISRDNSKNTLYLQMNSLRPEDTALYYCTIGGSLSRSSQGTLVTVSS
B3: T017001028 (bispecific antibody)
chain: EVQLVESGGGVVQPGGSLRLSCAASGTTLDYYVIGWFRQAPGKEREGVSCISSSDGYTYYADSVKGRFTISRDNAKNTVYLQMNSLRPEDTALYYCATDPYYSSCHPFFADYEYDYWGQGTLVTVSSGGGGSGGGSEVQLVESGGGVVQPGGSLRLSCVASGYVHKINFYGWYRQAPGKEREKVAHISIGDQTDYAESAKGRFTISRDESKNTVYLQMNSLRPEDTAAYYCRALSRIYPYDYWGQGTLVTVSSGGGGSGGGSEVQLVESGGGVVQPGGSLRLSCAASGFTFRSFGMSWVRQAPGKGPEWVSSISGSGSDTLYADSVKGRFTISRDNSKNTLYLQMNSLRPEDTALYYCTIGGSLSRSSQGTLVTVSS
B4: T017001027 (bispecific antibody)
chain: EVQLVESGGGVVQPGGSLRLSCAASGTTLDYYVIGWFRQAPGKEREGVSCISSSDGYTYYADSVKGRFTISRDNAKNTVYLQMNSLRPEDTALYYCATDPYYSSCHPFFADYEYDYWGQGTLVTVSSGGGGSGGGSEVQLVESGGGVVQPGGSLRLSCVASGYVHKINFYGWYRQAPGKEREKVAHISIGDQTDYADSAKGRFTISRDESKNTVYLQMNSLRPEDTAAYYCRALSRIWPYDYWGQGTLVTVSSGGGGSGGGSEVQLVESGGGVVQPGGSLRLSCAASGFTFRSFGMSWVRQAPGKGPEWVSSISGSGSDTLYADSVKGRFTISRDNSKNTLYLQMNSLRPEDTALYYCTIGGSLSRSSQGTLVTVSS
B5: T017001030 (bispecific antibody)
chain: EVQLVESGGGVVQPGGSLRLSCAASGTTLDYYVIGWFRQAPGKEREGVSCISSSDGYTYYADSVKGRFTISRDNAKNTVYLQMNSLRPEDTALYYCATDPYYSSCHPFFADYEYDYWGQGTLVTVSSGGGGSGGGSEVQLVESGGGVVQPGGSLRLSCVASGYVHKINFYGWYRQAPGKEREKVAHISIGDQTDYAESAKGRFTISRDESKNTVYLQMNSLRPEDTAAYYCRALSRISPYDYWGQGTLVTVSSGGGGSGGGSEVQLVESGGGVVQPGGSLRLSCAASGFTFRSFGMSWVRQAPGKGPEWVSSISGSGSDTLYADSVKGRFTISRDNSKNTLYLQMNSLRPEDTALYYCTIGGSLSRSSQGTLVTVSS

Columns and labels:
[1] = molecular target: human T cell receptor (TCRαβ) on primary human T cells (human); assay: cell-based or functional assay
Sequence of human T cell receptor (TCRαβ) on primary human T cells (human) (P0DTU3 134-275, chain 1 of 2): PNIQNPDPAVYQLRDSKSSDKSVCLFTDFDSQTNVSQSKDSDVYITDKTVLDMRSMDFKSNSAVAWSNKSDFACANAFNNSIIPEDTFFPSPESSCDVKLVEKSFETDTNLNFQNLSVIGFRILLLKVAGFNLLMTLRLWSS
Sequence of human T cell receptor (TCRαβ) on primary human T cells (human) (P01850 other isoform, or with tags, fused parts or gaps, chain 2 of 2, further chain): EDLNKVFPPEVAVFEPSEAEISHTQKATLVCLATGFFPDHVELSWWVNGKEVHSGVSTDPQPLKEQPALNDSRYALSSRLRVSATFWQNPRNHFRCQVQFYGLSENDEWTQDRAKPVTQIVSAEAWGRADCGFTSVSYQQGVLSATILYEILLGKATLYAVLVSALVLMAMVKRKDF

[2] = molecular target: T1, cynomolgus TCRαβ-zipper protein; assay: SPR Biacore 8K+, multi-cycle kinetics, TCR-zipper immobilized
Experimental: Binding of purified TCE-CD123-ALB and CD123-TCE-ALB ISVD constructs to human TCRαβ-zipper protein (huTCR(2XN9)-zipper, in-house produced) and cynomolgus TCRαβ-zipper protein (cyTCR(AEA41865)-zipper, in-house produced) was probed by Surface Plasmon Resonance (SPR) (Cytiva, Biacore 8K+). Both targets were immobilized on a CM5 sensor chip using standard amine coupling chemistry. […] Each concentration of the ISVDs was injected for 180s and dissociation was assessed during 600s.
Data was double referenced by subtracting a reference flow cell (FC) and a blank buffer injection. Affinity constants (ka, kd and KD) were calculated applying the Langmuir 1:1 interaction model using the Biacore Insight Evaluation Software (Cytiva, Version 3.0.12.15655).

Binder | EC50 (M), human T cell mediated MOLM-13 cell killing, Donor #1 [1] [M] | EC50 (M), human T cell mediated MOLM-13 cell killing, Donor #2 [1] [M] | Kd [2] [nM]
B1 | 6.6e-11 | 3.4e-10 | 780
B2 | 3.4e-10 | 4.4e-09 | 3900
B3 | 6.7e-10 | 3.2e-09 | 400
B4 | 5.7e-10 | 2.8e-09 | 190
B5 | 5.8e-09 |  | 3600
